B1: antibody 2854 (antibody, V domains shown)
VH: QVQLVQSGAEVKKPGSSVKVSCKASGGTFSSYAISWVRQAPGQGLEWMGGIIPIFHTANYAQKFQGRVTITADESTSTTYVELSSLRSEDTAMYYCATLPITIFGEEYSFDNWGQGTLVTVSS
VL: DVVMTQSPLSLPVTLGQPASISCRSSQSLVHSDGNTYLSWFQQRPGQSPRRLIYKVSDRDSGVPDRFSGSGSGTDFTLKISRVEAEDVGIYYCMQGTHWPPLTFGGGTKVEIK
B2: antibody 2788 (antibody, V domains shown)
VH: QVQLVQSGAEVKKPGASVKVSCKVSGYTLIELSMHWVRQAPGKGLEWMGGFDPEGAETIYAQKFQGRVTMTEDTSTDTAYMELSSLRSDDTAVYYCATGPAVFAANWFDPWGQGTLVTVSS
VL: QSALTQPPSASGSPGQSVTISCTGTSSDIGNYNNVSWYQQHPGKAPKLMIYDVIKRPSGVPDRFSGSKSGNTASLTVSGLQAEDEADYYCSSYAGKSYVFGTGTKVTVL
B3: antibody 2729 (antibody, V domains shown)
VH: QVTLKESGPVLVKPTETLTLTCTVSGFSLSNARMGVSWIRQPPGKALEWLAHIFSNDEKSYSTYLKSRLTISKDSSKSQVVLTMTIMDPVDTATYYCARTAGRYSSRWGHYYYYMDVWGKGTTVTVSS
VL: NFMLTQPHSVSESPGKTVTISCTGSNGSIASNFMQWYQQRPGSAPTIVIYEDNQRPSGVPDRFSGSIDGSSNSASLTISGLKTEDEADYYCQSYDSSDSDLGVFGGGTKLTVL
B4: antibody 2619 (antibody, V domains shown)
VH: EVQLVESGGGLVQPGRSLRLSCAASGFTFDDYAMHWVRQAPGKGLEWVSGISWNSGSIGYADSVKGRFTLSRDNAKNSLFLQMDSLRAEDTALYYCAKDVSYRSGSYYRFWGGSGSWGQGTLVTVSS
VL: DIQMTQSPSSLSASVGDRVTITCRASLSIRSYLNWYQQKPGKPPKLLIYAASSLQSGVPSRFSGSGSGTDFTLTISSLQPEDFATYYCQQSYSTPLTFGGGTKVEIK
B5: antibody 1589 (antibody, V domains shown)
VH: EVQLVESGGGLIQVGGSLRLSCAASGLTVTSNYMNWVRQGPGKGLEWVSLIYSGGTTYYADSVKGRFTISRDDSKNTLYLQMNSLRAEDTAVYYCARPIVGARSGMDVWGQGTAVTVSS
VL: DIQMTQSPSSLSASVGDRVTITCQASQDINKYLNWYQQKPGKAPKLLIYDASNLETGVPSRFSGSGSGTDFTFTISSLQPEDLATYYCHQFDNLPGTFGGGTKVEIK
B6: antibody 2866 (antibody, V domains shown)
VH: QVQLVQSGAEVKKPGSSVKVSCKASGGTFSSYSISWVRQAPGQGLEWMGGLAPIFHTPNYAQKFQGRVTITADESTSTAYMELSSLRSEDTAVYYCARVAGAGWGVYGAFDYWGQGTLVTVSS
VL: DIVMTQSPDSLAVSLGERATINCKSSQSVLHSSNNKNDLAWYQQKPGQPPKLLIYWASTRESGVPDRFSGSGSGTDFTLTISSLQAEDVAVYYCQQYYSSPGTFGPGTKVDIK
B7: antibody 2793 (antibody, V domains shown)
VH: QVQLVQSGAEVKKPGASVKVSCKVSGFTLPELSIHWVRQAPGKGLEWMGGFDPEDAKTIYAQKFQGRVTMTEDTSTDIAYMELNSLRSDDTAVYYCATGSPFGVVGNWLDPWGQGTLVTVSS
VL: QSALTQPASVSGSPGQSITISCTGTSSDVGDFSYVSWYQQHPGKAPKLMIYEVTKRPSGVSNRFSGSKSGNTASLTISGLQTEDEADYYCTSYTSSRLVLFGGGTKLTVL

Tests used:
[1] = target: T1, SARS-CoV-2 spike protein on live virus, strain USA-WA1/2020 (SARS-CoV-2, WA01/2020 strain, UniProt P0DTC2 14-1273); experiment: cell-based or functional assay
[2] = target: T2, Receptor-binding domain (RBD) of the SARS-CoV-2 spike protein, WA01/2020 strain (SARS-CoV-2, WA01/2020 strain, UniProt P0DTC2 319-541); experiment: ELISA, antibody at 0.1 ug/mL
[3] = target: SARS-CoV-2 spike protein, B1.1.7 (alpha variant), borne on lentiviral pseudovirus (SARS-CoV-2, B1.1.7); experiment: cell-based or functional assay
[4] = target: SARS-CoV-2 spike protein, B1.351 (beta variant), borne on lentiviral pseudovirus (SARS-CoV-2, B1.351); experiment: cell-based or functional assay
[5] = target: T1, SARS-CoV-2 spike protein on live virus, …; experiment: cell-based or functional assay; remark: listed apart in the source
[6] = target: T2, Receptor-binding domain (RBD) of the …; experiment: dose-response ELISA on WT RBD
[7] = target: T2, Receptor-binding domain (RBD) of the …; experiment: dose-response ELISA on coated antigen
[8] = target: T2, Receptor-binding domain (RBD) of the …; experiment: ELISA, antibody blocks RBD binding to human ACE2
[9] = target: T2, Receptor-binding domain (RBD) of the …; experiment: SPR (Biacore 8K), antigen immobilized, antibody injected
[10] = target: SARS-CoV-2 spike protein on live virus, B1.351 (beta variant) (SARS-CoV-2, B1.351); experiment: cell-based or functional assay
[11] = target: T2, Receptor-binding domain (RBD) of the …; experiment: SPR (Biacore), footnote to the Kd of < 4.7* pM

Row | Binder | Live Neut, WA1/2020 IC50 (pM) [1] [pM] | binding result [2] | Pseudo Neut, B1.1.7 IC50 (pM) [3] [pM] | Pseudo Neut, B1.351 IC50 (pM) [4] [pM] | IC50, live virus micro-neutralization WA1/2020 [5] [pM] | EC50 (read off the curve) [6] [ng/mL] | EC50 [7] [nM] | IC50 [8] [nM] | Kd [9] [nM] | Live Neut, B1.351 IC50 (pM) [10] [pM] | koff [11] [s⁻¹]
1 | B1 | 164 | no binding (tested: 0.1 ug/mL) |  |  |  |  |  |  |  |  | 
2 | B2 | 117 | no binding (tested: 0.1 ug/mL) |  |  |  |  |  |  |  |  | 
3 | B3 | 111 |  | 93 | 793 | 272 | ~10 | 0.037 | ~0.66 | 0.015 |  | 
4 | B4 | 118 |  | ~7 |  |  | ~20 | 0.037 | 0.479 | 0.105 |  | 
5 | B5 | 43 |  | 133 | 137 | 66.7 |  | 0.036 | 0.52 | < 0.0047 | 167 | < 1e-06
6 | B6 | 649 | no binding (tested: 0.1 ug/mL) |  |  |  |  |  |  |  |  | 
7 | B7 | 77 | no binding (tested: 0.1 ug/mL) |  |  |  |  |  |  |  |  | 
